According to doi:10.1101/219105:

Columns and labels:
[1] = biological target: Asp1, untagged, as co-expressed with Asp3 and tagged Asp2 (Streptococcus gordonii) (UniProt Q9AET8); test: light scattering
[2] = biological target: Asp1/2/3 complex (without a tag) (Streptococcus gordonii) (UniProt Q9AET8); test: light scattering

Chain of UniProt Q9AET8 (Q9AET8 whole entry): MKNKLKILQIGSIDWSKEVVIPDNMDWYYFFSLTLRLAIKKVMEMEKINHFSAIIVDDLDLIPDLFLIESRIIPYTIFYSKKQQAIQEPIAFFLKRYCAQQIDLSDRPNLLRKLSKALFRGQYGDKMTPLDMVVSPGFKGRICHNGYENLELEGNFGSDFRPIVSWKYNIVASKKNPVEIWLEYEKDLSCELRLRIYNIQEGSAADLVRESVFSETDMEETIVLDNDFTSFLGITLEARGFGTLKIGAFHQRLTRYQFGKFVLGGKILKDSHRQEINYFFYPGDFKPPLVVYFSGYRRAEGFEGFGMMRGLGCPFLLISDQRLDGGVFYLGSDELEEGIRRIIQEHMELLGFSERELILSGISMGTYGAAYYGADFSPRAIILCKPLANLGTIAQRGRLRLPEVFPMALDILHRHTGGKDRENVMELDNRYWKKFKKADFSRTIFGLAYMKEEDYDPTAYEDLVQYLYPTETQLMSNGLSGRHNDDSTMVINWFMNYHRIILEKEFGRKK

## Asp3 (accessory Sec protein 3) (natural protein)
[1]
  stoichiometry N: 1

## Asp1/2/3 complex (without a tag) (from UniProt Q9AET8 1-510)
[2]
  stoichiometry N: 2
